From a protein production outcome set (Wang et al. 2014)

Assay: label from the status in PepcDB records
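Further: failed if final PepcDB status was selected cloned or expressed and not failed if soluble or beyond.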

| Sequence | protein production |
| --- | --- |
| MPDVDKIIQFKREILDNLSNERLSKESFGLSMDVKLPEPGESIVPWIGEDLALDETDDELDLNFMLDALENEDKLSYSDIFNDNLPLSGSNLRVDVDSELSTLNNDFDVSSSDSFENNIDKVLDDNSIDLEIASKLDFDNLINSPELSSEELINNQGNNNFFEANNDSSVLGDSNFLQSNEFNIDDAVNGKNQTDEQSEMFVGDSLNLSADEDDFENVIDDFKFLEYDQNANFKRFEFKVNYPLFLKHLNSYPRNLRIAIAEALTKENVSRFKLEALIDLVEKNKKRLKFIAKFVGDIVGRSIKLPVIYFKAEEFSKLQQKLSYRVSRALLPLIKIASFFVVLVLVSLYLIVDVIFFYVASESKYKEGIESIYANKRDLAKSIFRDAYYIRPDDKWFINYAKAFEDVRDFDSAEEKYEELFTIEPFSKNSTNRRRKKFNKEGYISYASMKIGLGEHSEANSILDEVISYDLYDYDALVLKGDNYFKWAKTNSNYYKDSINSYTVVLSKYGQKKEILFKLFNAYIEANLDTESDNVNNFIKSNEILDIDEVVYTKYAKKLVDKYISFVTYNQRANNLAINLNYLNGQTNLLNKEFSDFKRNDGRTIFKLDNNVNMNSEIEYILRKILNKNPNYDKALFESGRYSYYIGDFKKAEVYLLKALNSFRHKNSIEDAGDKILAYKILADIYEKTRDSLRASNIIGLALSDYSFYKKHNLIKGSKEISSIYEKQGDILRSLNDFKSAISSYKLAINEGVDYPDVYYKVGLLSYRENNYDDALKYLFKVESMAGFSSSNEVLNTIALTLYKIGDFLASRSYYLRVMQNLELEKANVLNFNPKENDYHKTLLLKEIETYNNLGVVEVMASFSSIRDTKLFNSGVSNLSESAKIFDILNRDEDMVKSVKKDLASLNLRNIFKNSFSKSNVLFYENLSEKL | failed |
| MNRGVIVTGGGHGIGKQICLDFLEAGDKVCFIDIDEKRSADFAKERPNLFYFHGDVADPLTLKKFVEYAMEKLQRIDVLVNNACRGSKGILSSLLYEEFDYILSVGLKAPYELSRLCRDELIKNKGRIINIASTRAFQSEPDSEAYASAKGGIVALTHALAMSLGPDVLVNCIAPGWINVTEQQEFTQEDCAAIPAGKVGTPKDISNMVLFLCQQDFITGETIIVDGGMSKRMIYHGDWNWFYKIDK | not failed |
| MRRNRPGARHCPAFSGYPDPGFPRGSRRSGSSRRGKSRIMDWLKSLPGIGPLIARLMTTHAWRSYERLDRVKWTQLAAAMTFISFVALFPLLTVAAAIGAAALSEEQQKTLQDKLAEQVPGISDQLDIHALVQNAGTVGVIAGAVLLFTGIGWVGAMRDCLRAVWELDDDEENPFLRKLKDGGVLLGLGGAVLVTLATSTVASAMVGWTADRLGIERDGWGSVLLHITAFLVAVLADFLLLLYVLTLLPGVEPTRRRLVVAALIGAVGFELLKLLLSGYIQGVASKSMYGAFGVPVALLLWINFTSKLLLFCAAWTATPSDGPAEEEVSGASDDVPDRAAASGG | failed |
| MSLRDYTRKRRFDQTPEPAEDAAATAHRQPIFVVQLHHASSRHYDFRLEADGVLKSWAVPKGPSLRAGEKRLAVQVEDHPLAYAGFEGDIPQGQYGAGHVQVFDHGTWHCDGDALAALDAGKLDFDLQGDKLRGGFALVRTRLRGRQPQWLLIKRDDAHAADLDADALVADSDATAQAIETPSAAAAPARRAKASRRRRTPAEALVTEKSASASRPRASAATQAHWRTRALALPGARDAACPTGLRAQLTLLRAEAPDGAQWPHEIKWDGYRLLTDLVDGRAQLRSRNDQAWTDSFPEVATAVQALPVRDARLDGELVVLDAQGRSDFSALQRAIDGTARQPLRYLVFDLLGVAGVDLRATPLLERKQLLRALLGETPGTLAYSAHVIGRGPEVFAASADKGWEGIVSKRADAPYRGGRSADWVKTKHEDSDEFVVVGYTDPKGARSGFGALLLAQLDGTQLRYVGRVGTGFDSALLGEITAQLQALHSPQPTLELPAHIPSRPRDVHWVRPVLIAEVAFRGWAKQGLLRQAAFKRLREDKPMSDLGGDRATPGKSRGARTRTAAAAAGKASRAAATRTAAVSAGGSAAKPGKAGKSSTAADVSTPSRVAKQRVTPAASSAAKPGKPGKSSAAATGTASPRAAKRGAVSTASASSTPKSGKRSVSSGSAASGKPAAPSKAASSKTARTPATSSARKTSTATAASSIRKARASASNAPDGVAITHPERVVFPAAGISKGDVAAYYRAVAPLVLPEIARRPLSLLRCPDGAAGACFFQKHEGRHLGAHIKAIPLKQKSGTEDYLYIEDVAGLLELVQMNTLELHPWGARVDDPEHPDRLVFDLDPGEGVAWTQVVAAAREIRSKLRAAGLESAVRLSGGKGLHVVVPIVPQASWDQARDFCEAFAQALATQAPERYVATMSKAKRHGVIFVDWLRNGRGNTSVCSWSLRAREHATVAVPLRWEELGKLSGPDAFPLDKAVQRAKRQRNDPWADVLALKQVLPG | failed |
